Source: the emibetuzumab library of Makowski et al. (2022)

B1: VH:VL chains; a variant is named by its letters at X, in order (parent)
chain 1: QVQLVQSGAEVKKPGASVKVSCKASGYTFTDYXMHWVRQAPGQGLEWMGXVNPNXXXTTYNQKFEGRVTMTTDTSTSTAYMELRSLRSDDTAVYYCARXNXLDXWGQGTTVTVSS
chain 2: DIQMTQSPSSLSASVGDRVTITCSVSSSVSSIYLHWYQQKPGKAPKLLIYSTSNLASGVPSRFSGSGSGTDFTLTISSLQPEDFATYYCQVYSGYPLTFGGGTKVEIK

Variants of: B1
Test: yeast display scFab, FACS + sequencing
Procedure, shortened: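 Heavy-chain CDR mutant scFab yeast surface library, FACS-sorted after labelling with biotinylated ovalbumin (260 μg/mL in PBSB, 3 h, room temperature) or soluble membrane proteins (130 μg/mL, 20 min on ice), plus anti-Myc. Gates collected the top 25% and bottom 10% of binders, and samples from two replicates were deep sequenced. Non-specific binding call: a sequence was positive if found in ≥3 of 4 positive samples (membrane protein and ovalbumin pooled) and no negatives, and negative by the converse rule.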

Row | Variant | non-specific binding call
1 | VRTRSSLD | binds
2 | SRTRGFVV | binds
3 | VTEGGSVD | binds
4 | VTEGDDVF | no binding
5 | DTGEADAS | no binding
6 | ATGGAAGD | no binding
7 | YRTRGSWD | binds
8 | STATADVA | no binding
9 | YRTKGSGV | binds
10 | YTERGDAV | no binding
11 | YTEGDDWY | no binding
12 | VTERDDAV | no binding
13 | YRTRDDLY | no binding
14 | VTEENDGY | no binding
15 | YTGEDAVA | no binding
16 | FTAGGAAD | binds
17 | YRTRSSAV | binds
18 | VTGEDAGS | no binding
19 | VTGEDAGD | no binding
20 | VTGEDAGA | no binding
21 | YRTRGAVD | binds
22 | VTAEDFGV | no binding
23 | VRTRGSSS | binds
24 | FRTRGAAA | binds
25 | YTAGSALV | no binding
26 | STEASYLS | no binding

Row | Variant | non-specific binding call
27 | ATATADWA | no binding
28 | ATGANAGD | no binding
29 | VTAGDDAV | no binding
30 | STGEDDVY | no binding
31 | YTGEGSWV | no binding
32 | YRTRSSVS | binds
33 | YRTRSAWD | binds
34 | YRTRSSWD | binds
35 | VTETGDSV | no binding
36 | VTEGGALA | no binding
37 | VRTRSSGV | binds
38 | FRTRDSGY chain 1 V68I | binds
39 | VTGEDDGD | no binding
40 | VTGEDDGS | no binding
41 | YTGATAGA | binds
42 | VTEGGDAA | no binding
43 | FRTRSSGV | binds
44 | VTGEDDWD | no binding
45 | VTGEDDWY | no binding
46 | VTGEDDWV | no binding
47 | ATAGSAAV | no binding
48 | YRTKGAVY | binds
49 | YTAGSDWY | no binding
50 | VTEGGDVA | no binding
51 | VTEGGDVY | no binding
52 | SRTRGFGS | binds

Row | Variant | non-specific binding call
53 | VRTRGALS | binds
54 | STAESDVA | no binding
55 | STAEDDWV | no binding
56 | YTERNFGV | binds
57 | DTEEGDWV | no binding
58 | DRTTNAGD | no binding
59 | VRTRGYLA | binds
60 | FTETGAGD | no binding
61 | FRTKSDLA | no binding
62 | YRTRDSAS | no binding
63 | FRTRDAAA | binds
64 | VTEGDAGD | no binding
65 | VTEGDAGA | no binding
66 | DTEGDAGD | no binding
67 | YRTRDSGV | binds
68 | YTERAAWA | no binding
69 | YTGEGDGV | no binding
70 | YTGEADAS | no binding
71 | YTGGADAV | no binding
72 | YRTRSAGD | binds
73 | YRTRSAGA | binds
74 | YRTRSAGV | binds
75 | VTAGDAGD | no binding
76 | YRTRDSLD | no binding
77 | STAESDLD | no binding
78 | ATGEGDGV | no binding

Row | Variant | non-specific binding call
79 | ATGANSLD | no binding
80 | FTGEAAGD | no binding
81 | YTAAADLV | binds
82 | YRTRGAAA | binds
83 | YRTRDALV | no binding
84 | FRTRDFLV | binds
85 | YRTRGALA | binds
86 | YRTRGALS | binds
87 | DTGANDWV | no binding
88 | YTEGDFAV | no binding
89 | YTEKTFSD | binds
90 | DTGGDAGV | no binding
91 | DTAESSSF | no binding
92 | STAESDGA | no binding
93 | VTEEGSSV | no binding
94 | YTEGDDGV | no binding
95 | YTEGDDGD | no binding
96 | YTEGDDGA | no binding
97 | FRTRSSLA | binds
98 | ARTKGSGY | binds
99 | VTETGSLV | no binding
100 | ATGEGDWS | no binding
101 | VTEGDSGV | no binding
102 | STEEGDWV | no binding
103 | YRTRSAAV | binds
104 | YRTRSAAA | binds

Row | Variant | non-specific binding call
105 | FRTRGSSD | binds
106 | FRTRDSAA | binds
107 | FRTRDAGD | no binding
108 | YRTRSAVV | binds
109 | YRTRSAVY | binds
110 | VRTRGAVD | binds
111 | VTGEDSLD | no binding
112 | VTGEDSLA | no binding
113 | VTGEDSLV | no binding
114 | FRTRDALD | binds
115 | YTEEAAVD | no binding
116 | FRTRDSSS | binds
117 | FTGEDDVY | no binding
118 | ATAGSDGV | no binding
119 | DTERDDAV | no binding
120 | STGEADAS | no binding
121 | VTAGDSAD | no binding
122 | DTAGDAAV | no binding
123 | FRTRGVGA | binds
124 | VRTRGDGA | binds
125 | DTAESDLD | no binding
126 | FTGGASGV chain 1 V111I | no binding
127 | VRTRGSWD | binds
128 | YRTRDDVY | no binding
129 | YRTRDDVV | no binding
130 | YTARGSAA | binds

Row | Variant | non-specific binding call
131 | ARTRTAWY | binds
132 | STAEDFVV | no binding
133 | VRTRSFGA | binds
134 | YRTRGAWF | binds
135 | YRTRGAWA | binds
136 | VTAGSDAV | no binding
137 | YRTRGSLY | binds
138 | VTAESSSF | no binding
139 | YRTRAAWD | binds
140 | DTEEGDVA | no binding
141 | FTEEGAGD | no binding
142 | VRTRAAVD | binds
143 | VTAGDDGS | no binding
144 | VTAGDDGV | no binding
145 | VTEEGSWV | no binding
146 | YTEKGVGV | binds
147 | VRTRASVD | binds
148 | ATGGAALD | no binding
149 | VTGEDDAV | no binding
150 | VTGEDDAA | no binding
151 | YTERGFGV | no binding
152 | DTGEDDVY | no binding
153 | VTGGDALA | no binding
154 | STAESSSF | no binding
155 | STATADWV | no binding
156 | STEGDAGA | no binding

Row | Variant | non-specific binding call
157 | YTGEDDVY | no binding
158 | YRTKGAAD | binds
159 | ATGANAAV | no binding
160 | FTEGDSGY | no binding
161 | ATAGSASD | no binding
162 | YRTRDSVD | binds
163 | YRTRDSVA | no binding
164 | FTGGAAGD | no binding
165 | DTERGSLV | no binding
166 | VTGEGALV | no binding
167 | FRTKGAWV | binds
168 | VTGEADAS | no binding
169 | FRTKGAAD | binds
170 | YTEETDGF | binds
171 | YRTRGAGV | binds
172 | YRTRGAGA | binds
173 | YRTRGAGD | binds
174 | VTGGDDGA | no binding
175 | YTAGSDVA | no binding
176 | YRTRDVGF | binds
177 | YRTRDAGY | no binding
178 | FTETGFGA | binds
179 | STAGSASD | no binding
180 | DTAGDAVV | no binding
181 | YTETGDSV | no binding
182 | YRTRGASD | binds

Row | Variant | non-specific binding call
183 | YTARDVGV | binds
184 | VTEEGDWV | no binding
185 | VTGANDWV | no binding
186 | FRTRDVGF | binds
187 | VTGEDSGV | no binding
188 | YTEAADGA | no binding
189 | VTERSALD | binds
190 | YRTRDAWV | binds
191 | FRTRDSLD | binds
192 | YTEEGDWV | no binding
193 | YRTRGSGF | binds
194 | YRTRGSGY | binds
195 | YTAGSDGA | no binding
196 | YTAGSDGV | no binding
197 | FTEEGDGA | no binding
198 | FTEEGDGV | no binding
199 | VTATADWA | no binding
200 | ATGEADAS | no binding
201 | VRTRGSGV | binds
202 | FTGEADAS | no binding
203 | YTERGDVD | no binding
204 | YTERGDVY | no binding
205 | DTATADWA | no binding
206 | VTERGSLD | no binding
207 | VTGESAAV | no binding
208 | FTARSAGF | binds

Row | Variant | non-specific binding call
209 | VTGESDWY | no binding
210 | YRTRSSGA | binds
211 | YTATGFAV | binds
212 | FTEEGAVD | no binding
213 | FTETGSVD | no binding
214 | YTARGVSF | binds
215 | FTGGDALA | no binding
216 | DTAEDFGV | no binding
217 | FRTRGAVV | binds
218 | STEGGSVY | no binding
219 | VTGEDSSD | no binding
220 | YRTRGYAV | binds
221 | VTAGDDVA | no binding
222 | VTAGDDVY | no binding
223 | ATGEDDVY | no binding
224 | DTEGGSAS | no binding
225 | VTGEDAVV | no binding
226 | VTGEDDVD | no binding
227 | VTGEDDVV | no binding
228 | VTGEDDVA | no binding
229 | SRTRDAGD | no binding
230 | FRTKGSGD | binds
